Experimental data reported in the DeepSol protein solubility set.

Experiment: soluble on expression in E. coli; label from the status in PepcDB or PDB records

Sequence | soluble on expression in E. coli
MPPRCYNSNSRRAELLERIQSDIPATVAQALSEDLGGEVNADRDLTAQLLPADKQATATIITREDGIFCGQRWLNEVFIQLGAQISIQWLVTDGDKLTANQTLCHLTGPARILLTGERTALNFLQTLSGVATEVSRYVVQLAGLKTQLLDTRKTLPGLRTALKYAVLCGGGNNHRLGLSDAFLIKENHIIAAGSIKEAVAKAFWIHADVPIEVEVESLDELQQALEAGADIVMLDNFTIPMMRDAVKMRDDHAKTQGSAQLEVSGNVTLETLRSYAETGIDFISVGALTKHITALDLSMRFQ | not soluble
MPQLSRYSDEHVEQLLSELLSVLEKHKAPTDLSLMVLGNMVTNLINTSVAPAQRQAIANSFARALQSSISEDNAH | not soluble
MPQVAKTYESLAREAADNNLDYEEYLLCVLEQEVHQRENNRIQRGIRQAGFPVIKTIESFDFLAIPSLNKPRVLKLMQGEYIRRRENVILIGNSGVGKTHIATALGYEACRQGMKVKFYTAAGLINELLAAQQEYRLNKLEKQWLAPHLVILDELGYVPFSKIGAELLFQFCSSRYERGSLIITTNLEFPRWTEVLGDEQMTAALLDRLTHNAHILNINGESYRFKQALSKQANND | soluble
MPRKKSAGPRSFGEPLTDDPDDAPELLDEFFRTGEIRVDGKIVRRGRPPLGTQPKSSVTLRLDADVLDAYRALGRGWQSQINADLRRVRKLKKA | not soluble
MPRYLGLMSGTSLDGMDIVLIEQGDRTTLLASHYLPMPAGLREDILALCVPGPDEIARAAEVEQRWVALAAQGVRELLLQQQMSPDEVRAIGSHGQTIRHEPARHFTVQIGNPALLAELTGIDVVADFRRRDVAAGGQGAPLVPAFHQALFGDDDTSRAVLNIGGFSNVSLLSPGKPVRGFDCGPGNVLMDAWIHHQRGEHFDRDGAWAASGQVNHALLASLLADEFFAARGPKSTGRERFNLPWLQEHLARHPALPAADIQATLLELSARSISESLLDAQPDCEEVLVCGGGAFNTALMKRLAMLMPEARVASTDEYGIPPAWMEGMAFAWLAHRFLERLPGNCPDVTGALGPRTLGALYPA | not soluble
MPSMAEIYVKELRERDPATVDTLFLDNAEDGQIGGLTDQLINLEMLSMVKCGLTTLAGFPTLPALTYLDISDNQLGDNASFDVLVKNAPDLKKITLASNKLSLDNLRCLKVLPNLFELDLSNNPSLGLLEDYREKMFEMIPSLKILDGCDVDGEEVEEEFAGEGGEDSEEGSGDEDGPGLSYLEKSQFSDDETDDYAPEGGDAEPRGTKRGASDNGEEPDNKKAAGDDE | soluble
MPSNTSIRSNSNAIKARAPASAPKRPTSAEYVKKYTEYLATGHQIRHALQRLYDLNCSIQVFEECLTEKVILQKYTGQSEYQYPVTLLMNKFDDLRKREIRVANEKWSKNGELSAAMFTNKMVMEQRMKDLEKMDQKTANNLFVAALGDSCFIPKKKVDYSKFKITKRSKSSTSTSPSSSSSETSSPIA | not soluble
MPSSIYRYETIQVAGRGAFGLVVIARDTLTSKRVAIKRIMVPNVSKVSLAREISCLRNLHHRNILKLLDCFPSADLMSIVTEEVPYTLGDIIKDKTRPKTEQFNRWYYTQILSGIAYLHSKEIMHRDIKPENILVTSRNVVKIADFGQACFYMPKDPNQEYDVNVATRWYRAPELLFGSKKYKPDVDIWAIGCILAELVRGKPIFPGRSELEQISIIFGVLGTPNEDNWPNWRTMPDANKLLFEPKEPRNNWTEILLCKEISNNFTEFLGSHLQFFKRLKASELLKEPWIKQGLPLVEPNYRISKKSTRRNQRDALPPLHVFL | not soluble
MPTWEELYKNAIEKAIKSVPKVKGVLLGYNTNIDAIKYLDSKDLEERIIKAGKEEVIKYSEELPDKINTVSQLLGSILWSIRRGKAAELFVESCPVRFYMKRWGWNELRMGGQAGIMANLLGGVYGVPVIVHVPQLSRLQANLFLDGPIYVPTLENGEVKLIHPKEFSGDEENCIHYIYEFPRGFRVFEFEAPRENRFIGSADDYNTTLFIREEFRESFSEVIKNVQLAILSGLQALTKENYKEPFEIVKSNLEVLNEREIPVHLEFAFTPDEKVREEILNVLGMFYSVGLNEVELASIMEILGEKKLAKELLAHDPVDPIAVTEAMLKLAKKTGVKRIHFHTYGYYLALTEYKGEHVRDALLFAALAAAAKAMKGNITSLEEIREATSVPVNEKATQVEEKLRAEYGIKEGIGEVEGYQIAFIPTKIVAKPKSTVGIGDTISSSAFIGEFSFTL | soluble
MPTYPPSLLQSLLQYIPERELAWDCGAGSGQLTHMLASYFDQVVGTDISQTQLSHAEYYDNISYQLQPAENTTFPDHCFDLITVAQAIHWFDFEAFYAEVRRTIKPSGILAVVGYGLIHVDDLEINAKVQHLYHQTLNGFWDAERHYVDELYQTIPFPFDEIEMPAFQIEAQWTLQQLLQYLNTWSAVQHYILEKNLDPVQQLLSKGLEHHHHHH | not soluble
MPVLYKPFQSNLEDKKSGKKLFYPHVVRTGNINSAQLSKEIAAYSSLSPGDVKNTLDNLVTVMAQHLQSSESVSVDGLGTFRMVMSARGRGVETADEVSAAQATLTVRFQPTTTKNLDRTTATRSMVTGAKCARYDKLVSAPGDGGSVDDPNDKPGGGSDGGDDGEAPDPTV | not soluble
MPYIIPTFEEIRAAILRDVKNLLPDADTGPDSDAFIRASSTASAVYGLYQHQLWMARQILPDTADTAYLESHAALRGITRKPATKATGTLTLTGTPGAAVPAGTEARHIATGATFRTTATVTLAENGTASAPCEASVAGAMPDYTAETVLLTAPPPGVQSTASLALTGGTDTETDAELLERLLFHFRNPPGGGNRYDYKRWALEVPGVTGAWVYPLRRGLGTVDVAVLSAGGLPTPELLAAAQARIDERRPVACKDARVLAPTPLAVDVRVRVRLAGTTLPVVTTQVREALAAHFGGYEPGGQVVRSRLEAIISGIPGVADRDLTAPSANVQAVVDASRVEWPRLGTVTVEAMLEHHHHHH | soluble
MQAAITVAIPILYKDSVSCSHAESEHFSGTGVTVIIFEVGRDCMKYSFLRQINACVCFDQYEEMEGLLCNGLYMFFIQYTPTILRGDLFAF | not soluble
MQAHQSLHPSSAYLLDPRDTHHFIRKPTISMETTTEIPAGGATSLLPIVRAAKTPPIPLTVPCAIAGVMMEFECLLRGKRMLVNAMVYNVKTTIAGHPWE | not soluble
MQAINPNWNVPKNIHAFTTTREGGVSLAPYLSFNLGDHVGDNKSAVKTNRTLLVEKFGLPQTPIFLTQTHSTRVIQLPYSGQNLEADAVYTNVPNQVCVVMTADCLPVLFTTTSGNEVAATHAGWRGLCDGVLEETVKYFQAKPEDIIAWFGPAIGPKAFQVGIDVVEKFVVVDEKAKLAFQPDAIEEGKYLSNLYQIATQRLNNLGITQIYGGNHCTFNEKEKFFSYRRDNQTGRMASVIWFE | not soluble
MQALAAMPAPVAASVRIVLTDIDDTLTTEGRLPAGAYAALERLEQAGIVVVPITGRPAGWCDHIARMWPVRAVVGENGAFYYAYDRSARRMNAHYWADAATRAANRQALQAIRERVLREVPGTAVASDQDYRVADLAIDFCEDVPALPDSAVGRIVEIFHEAGAQAKVSSIHVNGWFGDYDKLTMTRTLFEREFGLSIDSALQHTLFIGDSPNDEPMFKFFPISVGVANIQSQLHRIQHRPAFVAAARGGDGFVEMAERLLANRG | not soluble
MQARRYLLRPAARLRRSRRIATAAPERLWLFDLDNTLHDTSHAIFPLIDRGMTEAVAETLAVDEATANRLRAEYWRRYGATVIGLVRHHGVDADAFLHRSHNFEVAPLVRAETALADKLRRLPGRKVLLTNAPLHYARAVLRHLGLLRQFDSIWAIEQMCMHGQFRPKPSDALLRYVLAREGVPAARAVLIEDTLDNLRSARRVGLRTVHVFHPGTPFARGHRQRPGYVDLRVNSVSDLLLRRRPLRG | not soluble
MQARWIGNMMFHVRTDSNHDVLMDTKEEVGGKDAAPRPLELVLTGLMGCTGMDVVSILRKMKVIDQMKDFRIEIEYERTEEHPRIFTKVHLKYIFKFDGEPPKDKVEKAVQLSQEKYCSVSAILKCSSKVTYEIVYEN | not soluble
MQDEFDLFRTETKGIKPIKQDTFVAPRQKRDQKKIELKELRAKEDTLFYFSDEYEPLLNDNDGVVKYLRDGEDSHLLKQLRRGDFSPELFLDLHGLTREQAKQELAALLLACENEHVDCASIMTGYGTFTLKKQIPRWLVQHPKVRALHQAPREWGGEAAILILVDL | soluble
